Measurements taken from the supplement of paper PMC9170038.

Assays:
MS2 coat protein [1] = experiment: apparent KD of MS2 coat protein, switch OFF state (with FMN for OFF switches, without FMN for ON switches); designed switch direction (-1 OFF switch, 1 ON switch): -1; higher = weaker reporter binding; settings: FMN input: 0 or 200 uM; Eterna round: R93 (includes R88 designs)
Method in brief: (§1)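 For every design, apparent KD is the median of normalised binding-curve fits from its clusters. The RNA switches were transcribed on-chip from Illumina sequencing clusters and titrated with SNAP-549-labelled MS2 coat protein (twofold steps, 0.7 or 1.5 nM to 3 µM; 0.8–1.5 h to 10–20 min per step). Titrations used 100 mM Tris-HCl pH 7.5, 80 mM KCl, 4 mM MgCl2, without or with constant ligand.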

MS2 coat protein [2] = experiment: apparent KD of MS2 coat protein, switch ON state; designed switch direction (-1 OFF switch, 1 ON switch): -1; higher = weaker reporter binding; settings: FMN input: 0 or 200 uM; Eterna round: R93 (includes R88 designs)
Method in brief: as §1

| Sequence | apparent KD of MS2 coat protein (MS2 coat protein [1]) [nM] | apparent KD of MS2 coat protein (MS2 coat protein [2]) [nM] |
| --- | --- | --- |
| GGAGGGCAAGGAUAUACAUGAGGAUCACCCAUGUGAGAGAAAAAAGUGAGAAAGAAAAGUAGAAGGUGCUUUCG [salish99-ex3-130] | 47.8 | 38.8 |
| AGCUAGUCAGGAUAUACGAACAUGUCAAAAGACGUGAAAUAACAUGAGGAUCACCCAUGUAGAAGGGACUAGCA [Mat - Exclusion 2 - JL-Eli mod - D52] | 15.5 | 17.4 |
| AAAAUACAUGAGGAUCACCCAUGUGAGGAUAUGCUAUGGAAAAUAAAAAUAAAACAUAGCAGAAGGUACAAAAA [Denovo 14] | 33.4 | 18.2 |
| AUAGUACAUGAGGAUCACCCAUGUCAGGAUAUUGGAUAUGAAAAAAAAAAAAAGUUAACGAGAAGGGACUAUAA [EX1 Malc#14] | 33.6 | 28.5 |
| AACAAGUCAGGAUAUACAAAAAGUAAAUAAGUAAAACAAAAGUAGAAGGGACAUGAGGAUCACCCAUGUAAAUA [JR_Exc004_Sub018] | 26.7 | 46.8 |
| AAAAAGCGAGGAUAUACGAGUCAAAGAAAAGACAAAAGGGAACAUGAGGAUCACCCAUGUAGAAGGCGCAAAAA [Fiskers exclusion D2 62% 2] | 100 | 30 |
| AAGAACUGAGGAUAUACAUAAUAAAAGAAAAGAAAGAAAGAACAUGAGGAUCACCCAUGUAGAAGGCGGAAGAA [Khaneferre Sobekhotep IV] | 24.5 | 32.7 |
| AAAAAACAUGAGGAUCACCCAUGUGAGGAUAUGCAAUAAAAAAUAAAAAUAAAACAUAGCAGAAGGCACACCAA [Amethyst 58] | 31.8 | 26.6 |
| AAAAAUGGAGGAUAUACAUGAGGAUCACCCAUGUGUGGGCAUACUAUGUGGGCGUCAGGUAGAAGGCCAAAAAA [Gilly Gone Silly 25 - Jieux - Exclusion 3] | 273 | 93.7 |
| AUCGAUCGAGGAUAUACAUGAGGAUCACCCAUGUAAAGCAGAAGAAAGGCCUCAGGAUGUAGAAGGCGACGCAA [JR_Exc003_Sub404] | 41.9 | 17.1 |
| AGCUAGUCAGGAUAUACAAACAUGUCAAAAGACGUGAAGGAACAUGAGGAUCACCCAUGUAGAAGGGACUAGCA [Web Mod 74% 3] | 19.5 | 21 |
| AUCAUGUAAGGAUAUUAAAGAAAAGAAAAGAAAGAAAAGAAUAAGAAGGUACAUGAGGAUCACCCAUGUAAGAA [EteRNA is fun!] | 17 | 27 |
| AGAAAACAUGAGGAUCACCCAUGUGAGGAUAUCGAUGUCCAAAAAAAAGUGCGGGACUCGAGAAGGCACUUGGA [Erbelaed] | 32.5 | 46.6 |
| AACAUGUAAGGAUAUCCAAGAAAAGAAAAGAAAGAAAAGAAGGAGAAGGUACAUGAGGAUCACCCAUGUAAGAA [EteRNA is fun!] | 18.9 | 21.6 |
| AACAAGUGAGGAUAUCUGGAUAGGAAAAAGAAAACCUAUCCAGAGAAGGCACAUGAGGAUCACCCAUGUAAAAA [JL cataway mod 6] | 34.6 | 32.7 |
| AAGAAGUGAGGAUAUGGAAAAGAAAAGAAAAGAAAAGAAAACCAGAAGGCACAUGAGGAUCACCCAUGUAAGAA [Artabanus the Hyrcanian] | 28 | 29.5 |
| AAUAAACAUGAGGAUCACCCAUGUCAGGAUAUGCAUCUAACAUAAUAACAUAAAUACAGCAGAAGGGACUAAUA [JR_Exc001_Sub601] | 20.6 | 30.3 |
| AAGAAGUGAGGAUAUGUCUGUGCGAAAAAAAAAAAGUGCAGACAGAAGGCACAUGAGGAUCACCCAUGUGAAAA [Florian 65% 4] | 26.7 | 21.9 |
| AUAAUGCGAGGAUAUACAUGAGGAUCACCCAUGUAAAUCAAUAGGAGAGCCACAUUAAGUAGAAGGUGCAUUAA [JR_Exc003_Sub502] | 49.1 | 20.4 |
| AGUUGGCGAGGAUAUACAUGAGGAUCACCCAUGUGAAAUCGAGAAAAAAUAGGGAAAAGUAGAAGGCGCUGACA [Ruby 62] | 90.6 | 22.5 |
| AAGAAGAGAGGAUAUACAUAAUAAAAGAAAAGAAACAAAGAACAUGAGGAUCACCCAUGUAGAAGGCUCAAGAA [Khasekhemre Neferhotep I] | 51 | 32.1 |
| AGUUAGCGAGGAUAUACAUGAGGAUCACCCAUGUGAGAGAAAAAAGUGAGAAAUAAAAGUAGAAGGCGCUAACA [Mat - Exclusion 3 - Eli mod - D69] | 361 | 38.9 |
